Measurements published in article PMC4539990.

Biological target: purified FLAG-cortactin (rat) (UniProt Q66HL2)
Experiment: pull-down

Chain of UniProt Q66HL2 (Q66HL2 whole entry): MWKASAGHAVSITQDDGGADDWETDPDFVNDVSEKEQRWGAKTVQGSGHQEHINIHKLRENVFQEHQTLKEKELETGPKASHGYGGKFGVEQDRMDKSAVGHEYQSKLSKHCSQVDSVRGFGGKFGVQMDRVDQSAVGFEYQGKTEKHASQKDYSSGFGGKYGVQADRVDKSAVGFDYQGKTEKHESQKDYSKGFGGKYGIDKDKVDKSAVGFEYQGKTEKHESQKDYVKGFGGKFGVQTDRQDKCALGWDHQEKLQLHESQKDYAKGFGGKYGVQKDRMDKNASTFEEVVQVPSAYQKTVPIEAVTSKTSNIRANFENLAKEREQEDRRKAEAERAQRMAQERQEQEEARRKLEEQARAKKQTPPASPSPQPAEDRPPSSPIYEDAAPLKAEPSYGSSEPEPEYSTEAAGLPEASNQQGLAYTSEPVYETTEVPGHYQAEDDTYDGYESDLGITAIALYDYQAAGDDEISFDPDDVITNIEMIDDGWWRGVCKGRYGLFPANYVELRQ

Kd: 0.025 µM
Substance: purified shootin1 wild type (natural protein)
